This test addresses recombinant BRD4BD2 (residues 368-440) (human) (UniProt O60885).

Sequence of GAK_(14–351)-HA (O14976 14-351): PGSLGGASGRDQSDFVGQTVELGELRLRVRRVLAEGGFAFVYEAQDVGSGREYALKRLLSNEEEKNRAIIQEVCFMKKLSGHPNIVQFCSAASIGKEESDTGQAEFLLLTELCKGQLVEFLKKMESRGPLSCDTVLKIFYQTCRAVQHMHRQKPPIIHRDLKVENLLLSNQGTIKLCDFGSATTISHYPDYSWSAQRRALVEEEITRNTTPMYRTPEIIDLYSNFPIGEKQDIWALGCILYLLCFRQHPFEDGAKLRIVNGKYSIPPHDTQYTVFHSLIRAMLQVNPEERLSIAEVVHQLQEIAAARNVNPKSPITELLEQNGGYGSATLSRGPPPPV

Regarding “GAK_(14–351)-HA (from UniProt O14976 14-351) (domain or fragment)”, the intact protein mass spectrometry: MMH2 adduct on recombinant GAK 14-351 with BRD4BD2 present, 4 °C 16 h (approximately 2% without BRD4BD2) amounted to 22% and the intact protein mass spectrometry: TMX1 adduct on recombinant GAK 14-351 with BRD4BD2 present, 4 °C 16 h (none detectable without BRD4BD2) worked out at 5%.
